Measured values from patent publication US20210163599A1.
Values belong to the binder of their own block, whether it stands above or below them.

How the values were obtained:
[1] = biological target: huPD-L1-Fc (R&D Systems) (human) (UniProt Q9NZQ7); assay: Biacore, ligand rhPD-L1-Fc, Affimer as analyte
[2] = biological target: huPD-L1-Fc (R&D Systems) (human) (UniProt Q9NZQ7); assay: competition ELISA: hu CD80-Fc coated, 1.6 nM huPD-L1-Fc preincubated with the antibody
[3] = biological target: huPD-L1-Fc (R&D Systems) (human) (UniProt Q9NZQ7); assay: competition ELISA: hu PD-1-Fc coated, huPD-L1-Fc preincubated with the antibody

Sequence of huPD-L1-Fc (R&D Systems) (human) (Q9NZQ7 19-239 limits assumed): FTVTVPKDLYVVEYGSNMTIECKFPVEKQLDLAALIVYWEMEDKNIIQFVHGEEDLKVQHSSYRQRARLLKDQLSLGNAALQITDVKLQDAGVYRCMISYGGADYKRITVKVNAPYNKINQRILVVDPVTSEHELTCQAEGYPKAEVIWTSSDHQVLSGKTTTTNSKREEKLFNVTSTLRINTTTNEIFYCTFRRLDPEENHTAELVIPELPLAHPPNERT

koff [1]: 0.00129 s⁻¹
kon [1]: 752000 M⁻¹ s⁻¹
B1: AVA04-251 BH (designed binder, from a related filing)
chain: MIPRGLSEAKPATPEIQEIVDKVKPQLEEKTNETYGKLEAVQYKTQVLAREGRQDWVLSTNYYIKVRAGDNKYMHLKVFNGPWVPFPHQQLADRVLTGYQVDKNKDDELTGFAEAAAKEAAAKEAAAKEAAAKEAAAKEAAAKMIPRGLSEAKPATPEIQEIVDKVKPQLEEKTNETYGKLEAVQYKTQVLAREGRQDWVLSTNYYIKVRAGDNKYMHLKVFNGPWVPFPHQQLADRVLTGYQVDKNKDDELTGFHHHHHH

IC50 [2]: 0.31 nM
IC50 [3]: 0.18 nM
B2: mAb anti huPD-L1 29E.2A3 (Biolegend) (antibody, from another filing, V domains shown)
VH: EVQLQQSGPELVKPGASVKMSCKASGYTFTSYVMHWVKQKPGQGLEWIGYVNPFNDGTKYNEMFKGKATLTSDKSSSTAYMELSSLTSEDSAVYYCARQAWGYPWGQGTLVTVSA
VL: DIVLTQSPASLAVSLGQRATISCRATESVEYYGTSLVQWYQQKPGQPPKLLIYAASSVDSGVPARFSGSGSGTDFSLTIHPVEEDDIAMYFCQQSRRVPYTFGGGTKLEIK
